In patent US7888068B2, “Cloning of honey bee allergen C” (PLS-Design GmbH, priority 2006, dated 2011):
Entries after “also recorded” stand apart in the source; their conditions may differ.

B1: recombinant Api m 5: cloned recombinant Api m 5 expressed from vector pIB/Api5 with melittin signal sequence and His-tag (protein, listed as Apis mellifera)
chain: MEVLVQLALLLVVHGSLVVLVAGKSVPRVIDQDLERYEPLEEEDHRGARVPFNLEETYDQSFRANSFNGTWKTDREILYSDNYVGDIRLFDVTTGSGTVLLDSSVTADFDKASVMFSFDNSHVAIGHDYVNGFRYSIHQKCTVYNIKSRTFTDIANGDRIPLFKWSPTRNALIYVHKNDIYYQVFFEGGSDTRRITNTGVPDIVFNGIPDWVYEEEVLGSPVAFWISPDGRHLAFATFNDTNVRDIVISKYGSPGNSRDQYPNEIRIKYPKAGTTNPFVSLSVIDLHDPSSKLIDLPPPVDVVGADNVLYTANWRRDGEIVATWTNRVQNKAQLVLYDTKGNANNIYYEEETEGWLRIQPPLYHDRYVIVAKLQDSGTKAGRFLHATRLEYRNGALVDETDLTPGTCEVISLLLVDHARARLYYLGTELGKPSHKNLYSVQLSGNEPPVCLSCDVLTPEGNRCTYAYAYFSTNGSHYALYCAGPDPVFIAIVNANHRQISIWEENRSLRRKLAARTQPIVKNFNVNANGYTNKVKLYLPPDFDETKKYPLLITVYAGPNTIRITEEATYGFESYIVTNRSVIYGRIDGRGSAYKGSKMLFEIYRRLGTVEIEDQIIITRTLQEKYSWIDSNRTGIWGWSYGGFSAAMVLATDAESVFKCGISVAPVTSWIYYDSLYTERFMGLPTPEDNQSGYNDTDVSRRVEGMRGKKYMLIHGTADDNVHYQQTMMLNKALVNSDIMFQQQTYTDEAHALGNVFPHLYHTTDRFWANCLGYSH
modifications: His-tag, melittin signal
B2: Api m 5 (protein)
chain: KSVPRVIDQDLERYEPLEEEDHRGARVPFNLEETYDQSFRANSFNGTWKTDREILYSDNYVGDIRLFDVTTGSGTVLLDSSVTADFDKASVMFSFDNSHVAIGHDYVNGFRYSIHQKCTVYNIKSRTFTDIANGDRIPLFKWSPTRNALIYVHKNDIYYQVFFEGGSDTRRITNTGVPDIVFNGIPDWVYEEEVLGSPVAFWISPDGRHLAFATFNDTNVRDIVISKYGSPGNSRDQYPNEIRIKYPKAGTTNPFVSLSVIDLHDPSSKLIDLPPPVDVVGADNVLYTANWRRDGEIVATWTNRVQNKAQLVLYDTKGNANNIYYEEETEGWLRIQPPLYHDRYVIVAKLQDSGTKAGRFLHATRLEYRNGALVDETDLTPGTCEVISLLLVDHARARLYYLGTELGKPSHKNLYSVQLSGNEPPVCLSCDVLTPEGNRCTYAYAYFSTNGSHYALYCAGPDPVFIAIVNANHRQISIWEENRSLRRKLAARTQPIVKNFNVNANGYTNKVKLYLPPDFDETKKYPLLITVYAGPNTIRITEEATYGFESYIVTNRSVIYGRIDGRGSAYKGSKMLFEIYRRLGTVEIEDQIIITRTLQEKYSWIDSNRTGIWGWSYGGFSAAMVLATDAESVFKCGISVAPVTSWIYYDSLYTERFMGLPTPEDNQSGYNDTDVSRRVEGMRGKKYMLIHGTADDNVHYQQTMMLNKALVNSDIMFQQQTYTDEAHALGNVFPHLYHTTDRFWANCLGYSH

Experiments:
[1] = Dipeptidyl peptidase activity assay with Gly-Pro p-nitroanilide substrate; assay type: biochemical; details: 0.5 mM Gly-Pro-pNA, 25° C., monitored at 405 nm, compared to buffer alone
Method: One putative target of the enzyme might be the specific cleavage of the N-terminal peptide of pro-melittin to generate active melittin. The cleavage releases dipeptides with a C-terminal proline. Activity of such dipeptidases can be examined using the substrate Gly-Pro p-nitroanilide hydrochloride (Ref 22). Purified Api m 5 in NTA-binding buffer containing 300 mmol/L was incubated with 0.5 mM glycylpropyl p-nitroanilide (Gly-Pro-pNA, Sigma-Aldrich GmbH, Munich, Germany) as a substrate at 25° C. Released p-nitroaniline was spectrophotometrically monitored at 405 nm (FIG. 10).

[2] = system: IgE from pooled serum from honey bee allergic patients; assay: Immunoprinting of enriched Api m 5 with pooled serum from honey bee allergic patients (AlaBLOT, anti-IgE detection); assay type: binding, human; details: pooled serum from honey bee allergic patients diluted 1:10; anti-IgE alkaline phosphatase conjugate; BSA negative control
Method: Detection was performed with anti-IgE alkaline phosphatase conjugate (DPC Alablot system). Lane 1: BSA, negative control; Lane 2: honey bee venom; Lane 3: Enriched Api m 5 fraction; Lane 4: Protein standard (PageRuler™ Prestained Protein Standard, Fermentas GmbH).
Immunoprinting was performed to verify the allergic potential of enriched Api m 5. Two SDS-PAGE gel slabs with each containing samples of bovine serum albumin, honey bee venom and bee venom enriched in Api m 5, were run and eletroblotted onto a nitrocellulose membranes (Protran™, Whatman GmbH, Dassel, Germany). The nitrocellulose membranes were pre-equilibrated in transfer buffer (20 mm CAPS, pH 11, 10% (v/v) methanol). Transfer was done at 50V for 3 hours submersed in blotting buffer in a blotting chamber (model TE22, Amersham Pharmacia, Freiburg, Germany) according to the instructions of the manufacturer. One membrane was subsequently stained with coomassie brilliant blue G250 according to the instructions of the manufacturer. […] Using the AlaBLOT system kit (DPC Biermann GmbH, Bad Nauheim, Germany) blocked sample strips were incubated with pooled serum from honey bee allergic patients diluted 1:10, washed and analyzed for binding of anti-IgE antibodies.

[3] = system: phospholipase A2 (Api m 1), hyaluronidase (Api m 2), acid phosphatase (Api m 3), and melittin (Api m 4); details: versus Api m 1, Api m 2, Api m 3, Api m 4 and other minor components (Ref. 14); cited from earlier work
bee venom allergic sera = details: two studies (Ref. 10); cited from earlier work

Molecule | dipeptidyl peptidase activity (release of p-nitroaniline) [1] | binding of IgE / allergic potential in immunoprinting [2] | cross-reactivity in immunodiffusion [3] | reaction of bee venom allergic sera (bee venom allergic sera)
B1 | Clearly the peptidase activity of recombinant Api m 5 in releasing the chromogenic label from the dipeptide can be seen; also recorded: showed a dipeptidyl peptidase activity | – | – | –
B2 | – | binds to sIgE of honey bee allergic patients; also recorded: exhibited the allergic potential as seen in whole bee venom | noncross-reactive | virtually all tested bee venom allergic sera have been shown to react
